Data taken from the RNAGym collection of RNA variant scans (doi:10.7554/elife.80360).

B1: Hairpin Ribozyme (parent)
chain: GUCCUCUUUCACGUGCGCGUGAAAGAGAGAAGUGAACCAGAGAAACACACGUUGUGGUAUAUUACCUGGUA

Variants of: B1
Assay: self-cleavage, relative activity (ratio to wild type); higher = more cleavage; co-transcriptional

In order of falling self-cleavage:
1. ACCCUCUUUCACGUGCGCGUGAAAGAGAGAAGUGAACCAGAGAAACACACGUUGUGGUAUAUUACCUGGUA [G1A U2C]  0.899
2. AGCCUCUUUCACGUGCGCGUGAAAGAGAGAAGUGAACCAGAGAAACACACGUUGUGGUAUAUUACCUGGUA [G1A U2G]  0.895
3. CUCCUCUUUCACGUGCGCGUGAAAGAGAGAAGUGAUCCAGAGAAACACACGUUGUGGUAUAUUACCUGGUA [G1C A36U]  0.338
4. AUCCUCUUUCACGUGCGCGUGAAAGAGAGAACUGAACCAGAGAAACACACGUUGUGGUAUAUUACCUGGUA [G1A G32C]  0.318
5. AUCCUCUUGCACGUGCGCGUGAAAGAGAGAAGUGAACCAGAGAAACACACGUUGUGGUAUAUUACCUGGUA [G1A U9G]  0.293
6. AUCCUCUUUCACGUGCGCGUGAAAGAGAGAAGUGAACCAGAGAAACACACGUUGUGGUAUAUUAACUGGUA [G1A C65A]  0.285
7. CUCCUCUUUCACGUGCGCGUGAAAGAGAGAAGUGAACCAGAGAAACACACGUUGUGGUAUCUUACCUGGUA [G1C A61C]  0.249
8. AUCCUCUUUCACGUGCGCGUGAAAGAGAGAAGUGAACCAGAGAAACACACGUUGUGGUAUAUUACCUAGUA [G1A G68A]  0.21
9. AUCCUCUUUCACUUGCGCGUGAAAGAGAGAAGUGAACCAGAGAAACACACGUUGUGGUAUAUUACCUGGUA [G1A G13U]  0.208
10. CUCCUCUUUCACGUGCGCGUGAAAGAGAGAAGUGAACCAGAGAAACACACGUUGUGGUAUGUUACCUGGUA [G1C A61G]  0.202
11. AUCCUCUUUCACGUGCGCGUGAAAGAGAGAAGUGAACCAAAGAAACACACGUUGUGGUAUAUUACCUGGUA [G1A G40A]  0.199
12. AUCCUCUUACACGUGCGCGUGAAAGAGAGAAGUGAACCAGAGAAACACACGUUGUGGUAUAUUACCUGGUA [G1A U9A]  0.198
13. AUCCUCUUUCACGUGCGCGUGAAAGAGAGAAGUGAACCAGAGAAACACACGUUGUGGUAUAUUACCUGGAA [G1A U70A]  0.198
14. AUCCUCUUUCACGUGCGCGUGAAAGAGAGAAGUGAACCAGAGAAACACACGUUGUGGUAAAUUACCUGGUA [G1A U60A]  0.188
15. AUCCUCUUUCACGUGCGCGCGAAAGAGAGAAGUGAACCAGAGAAACACACGUUGUGGUAUAUUACCUGGUA [G1A U20C]  0.188
16. AUCCUCUUUCACGUGCGCGGGAAAGAGAGAAGUGAACCAGAGAAACACACGUUGUGGUAUAUUACCUGGUA [G1A U20G]  0.188
17. CUCCUCUUUCACGUGCGCGUGAAAGAGAGAGGUGAACCAGAGAAACACACGUUGUGGUAUAUUACCUGGUA [G1C A31G]  0.187
18. AUCCUCUUUCACGUGCGCGUGAAAGAGAGAAGUGAACCAGAGAAACACACGUUGUAGUAUAUUACCUGGUA [G1A G56A]  0.181
19. AUCCUCUUUCACGUGCGCGUGAAAGAGAGAAGUAAACCAGAGAAACACACGUUGUGGUAUAUUACCUGGUA [G1A G34A]  0.18
20. AUCCUCUUUCACGUGCGCGUGAAAGAGAGAAGUGAACCAGAGAAACACACGUUGUGGUAUAUUACCUUGUA [G1A G68U]  0.176
21. AUCCUCUUUCACGUGCGCGUGAAAGAGAGAAGAGAACCAGAGAAACACACGUUGUGGUAUAUUACCUGGUA [G1A U33A]  0.175
22. AUCCUCUUUCACGUGCGCGUGAAAGAGAGAAGUGAACCACAGAAACACACGUUGUGGUAUAUUACCUGGUA [G1A G40C]  0.167
23. AUCCUCUUCCACGUGCGCGUGAAAGAGAGAAGUGAACCAGAGAAACACACGUUGUGGUAUAUUACCUGGUA [G1A U9C]  0.167
24. CUCCUCUUUCACGUGCGCGUGAAAGAGAGAUGUGAACCAGAGAAACACACGUUGUGGUAUAUUACCUGGUA [G1C A31U]  0.163
25. AUCCUCUUUCACGUGCGCGUGAAAGAGAGAAGUGAACCAGAGAAACACACGAUGUGGUAUAUUACCUGGUA [G1A U52A]  0.155
26. AUCCUCUUUCACGUGCGCGUGAAAGAGAGAAGUGAACCAGAGAAACACACGUUGUGGUAUAUUACCUGGCA [G1A U70C]  0.154
27. AUCCUCGUUCACGUGCGCGUGAAAGAGAGAAGUGAACCAGAGAAACACACGUUGUGGUAUAUUACCUGGUA [G1A U7G]  0.148
28. AUCCUCUUUCACGUGCUCGUGAAAGAGAGAAGUGAACCAGAGAAACACACGUUGUGGUAUAUUACCUGGUA [G1A G17U]  0.127
29. CUCCUCUUUCACGUGCGCGUGAAAGAGAGAAGUGAACCAGAGAAACACACGUUGUGGUAUUUUACCUGGUA [G1C A61U]  0.126
30. AUCCUCUUUCACGUGCGCGUGAAAGAGAGAAGUGAACCAUAGAAACACACGUUGUGGUAUAUUACCUGGUA [G1A G40U]  0.123
31. CUCCUCUUUCACGUGCGCGUGAAAGAGAGAAGUGAACCAGAGGAACACACGUUGUGGUAUAUUACCUGGUA [G1C A43G]  0.113
32. CUCCUCUUUAACGUGCGCGUGAAAGAGAGAAGUGAACCAGAGAAACACACGUUGUGGUAUAUUACCUGGUA [G1C C10A]  0.102
33. AUCCUCUUUCACGUGCGCGUGAAAGAGAGAAGUGAACCAGAGAAACACACGUUGUGGUAUAUUAGCUGGUA [G1A C65G]  0.0867
34. AUCCUCUUUCACGUGCACGUGAAAGAGAGAAGUGAACCAGAGAAACACACGUUGUGGUAUAUUACCUGGUA [G1A G17A]  0.0844
35. AUCCUCUUUCACGUGCGCGUGAAAGAGAGAAGCGAACCAGAGAAACACACGUUGUGGUAUAUUACCUGGUA [G1A U33C]  0.0709
36. CUCCUCUUUCACGUGCGCGUGAAAGAGAGAAGUGAAACAGAGAAACACACGUUGUGGUAUAUUACCUGGUA [G1C C37A]  0.0534
37. CUCCUCUUUCACGUGCGCGUGAAAGAGAGAAGUGAACCAGAGAGACACACGUUGUGGUAUAUUACCUGGUA [G1C A44G]  0.0352
38. AUCCUCUUUCACGUGCGCGUGAAAGAGAGAAGUGAACCAGAGAAACACACGUUGUGGUAUAUUAUCUGGUA [G1A C65U]  0.0307
